Legend:
cyclin A/cdk2 = cyclin A/cdk2 (Homo sapiens, UniProt P20248); test: in vitro kinase assay, pRB phosphorylation by cyclin A/cdk2; type: biochemical; settings: peptide 9 μM and 18 μM; for pRB phosphorylation by cyclin A/cdk2: γ-32P ATP, SDS-PAGE, autoradiography
cyclin B1/cdc2 = cyclin B1/cdc2 (Homo sapiens, UniProt P14635); test: in vitro kinase assay, pRB phosphorylation by cyclin B1/cdc2; type: biochemical; settings: peptide 18 μM
[1] = target: cyclin D1-cdk2 association (Homo sapiens, UniProt P24385); test: GST-cyclin D1 binding assay with cdk2; settings: peptide 9 μM and 20 μM; Western blot
[2] = target: PAP-cyclin B1 interaction (Homo sapiens, UniProt P14635); test: GST-cyclin B1 pull-down assay of PAP binding
Sequence of PAP-cyclin B1 interaction (P14635 whole entry): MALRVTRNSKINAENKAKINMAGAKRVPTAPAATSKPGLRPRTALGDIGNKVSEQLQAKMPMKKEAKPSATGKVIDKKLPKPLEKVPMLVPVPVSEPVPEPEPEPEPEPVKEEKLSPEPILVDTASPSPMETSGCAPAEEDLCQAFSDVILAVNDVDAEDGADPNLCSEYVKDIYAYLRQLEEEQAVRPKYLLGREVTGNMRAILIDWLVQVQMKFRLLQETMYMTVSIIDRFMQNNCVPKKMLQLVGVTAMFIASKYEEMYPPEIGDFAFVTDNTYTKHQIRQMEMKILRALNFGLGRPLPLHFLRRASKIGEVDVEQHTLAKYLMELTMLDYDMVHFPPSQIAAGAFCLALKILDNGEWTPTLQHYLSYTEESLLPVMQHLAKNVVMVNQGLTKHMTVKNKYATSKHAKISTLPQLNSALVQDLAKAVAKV

HaTCat cells = test: DNA content by propidium iodide staining and FACS, HaTCat cells; type: cell-based, human; settings: for S-phase population of cells: confluent (resting) HaTCat cells
Excerpt: A graphical representation of DNA content of cells as collected by propidium iodide staining and subsequent FACS analysis. G0/G1, S, and G2M phases are depicted of cells either treated or not treated with cell permeable peptides. The percentage of untreated cell in a given phase are in white, PAP's CRM in (SEQ ID NO: 3) black, p21's in gray (SEQ ID NO: 5), scrambled in horizontal stripes (SEQ ID NO: 4), internalization sequence alone in vertical stripes (SEQ ID NO: 2).
(A) PAP's CRM (SEQ ID NO: 3) kills growing HaTCats, but stimulates S-phase entry of stationary HaTCats. The bar graph depicts the fold induction over non-treated cells of sub-G1 DNA content and S-phase DNA content of four different populations of cells. The percentage of cells found S-phase of each population is noted below the bar graph. Sub-G1 DNA content and S-phase DNA content are depicted of cells either treated or not treated with cell permeable peptides. The percentages of untreated cell in a given phase are in white, PAP's CRM (SEQ ID NO: 3) in black, p21's in gray (SEQ ID NO: 5), and scrambled in stripes (SEQ ID NO: 4).
Panel B of FIG. 7 is a graphical representation of DNA content of cells, derived from propidium iodide staining and subsequent the fluorescence-activated cell sorter (FACS) analysis. In this experiment, an immortalized human karitinocyte cell line (HaTCat) was treated with the cell-membrane permeable form of PAP's CRM (SEQ ID NO:3). […] This is not observed with the scrambled sequence (SEQ ID NO:4), nor the p21 (SEQ ID NO:5) nor the penetratin sequence alone (SEQ ID NO:2).
FIG. 8 is a graphical representation of the fold induction, over untreated control cells, of sub-G1 DNA content and S-phase DNA content of four different populations of HaTCat cells. These populations vary in their proliferation rates due to their confluency, starting with the least confluent population of cells, with 30% in S-phase, to the most confluent population, with only 3.5% in S-phase. Cycling cells, with over 30% of cells in S-phase, die when treated with the SEQ ID NO:3.
(§1) After treatment with or without cell membrane permeable peptides (Synpep), cells were trypsinized, centrifuged and washed in PBS. Cell were than fixed with methanol and kept at −20° C. for 40 min or overnight. After washing and equilibration in PBS, the cell pellet was resuspended in 1 ml of staining solution containing 50 μg of RNase A and 0.5 μg of propidium iodide per ml in PBS, and kept at room temperature for over 30 minutes. The cells were then applied to the fluorescence-activated cell sorter (FACSCalibur; Becton Dickson). The FACSCalibur program was used to sort and count the cells, and the Modfit program was used to calculate the percentage of cells in the G0/G1, S, and G2/M phases.

Wi38 cells = test: DNA content by propidium iodide staining and FACS, Wi38 cells; type: cell-based, human
MEFs [3] = test: DNA content by propidium iodide staining and FACS, mouse embryo fibroblasts; type: cell-based; settings: sub-confluent MEFs; for percentage of cells with S-phase DNA content / percentage of cells with sub-G1 DNA content: one hour, SEQ ID NO:3 1.87-30 μM, controls 30 μM
Protocol: (A) PAP's CRM stimulates both the percentage of cells with sub-G1 DNA content and S-phase DNA content in a dose dependent manner. DNA content as measured by FACS analysis is graphically represented.
(B) PAP's CRM stimulates cell death over time. The percentage of cells with a sub-G1 DNA content with or without treatment with 30 μM of PAP's CRM (SEQ ID NO: 3) for varying lengths of time is shown.
(C) The percents of cells with G0/G1 (in black), S (in gray), and G2/M (in white) DNA contents of the same population of cells in (B) are depicted.
Panel A depicts the MEF's response to a concentration curve of SEQ ID NO:3. […] After a one hour incubation, cells were harvested for propidium iodine staining and subsequent FACS analysis.
To further study the MEF's reactions to the membrane permeable peptide, SEQ ID NO:3, and to determine if the increase in S-phase depicts a stimulation or inhibition of proliferation, treatment with one concentration was followed at varying time points. Sub-confluent MEFs were treated with 30 μM SEQ ID NO:3, harvested at different time points, and their DNA content was analyzed by propidium iodide staining and subsequent FACS analysis. FIG. 10 panel B depicts the percentage of death initiated over time, as measured by sub-G1 DNA content. 30% of the cells die after the first hour of treatment, 50% by the forth. […], depicts the cell cycle analysis over time of those cells that are not dying. Here, the stimulation of the cell cycle over time by SEQ ID NO:3, is clearly seen, ruling out an inhibitory effect. In the first hour, 25% of the cycling cells are induced into S-phase, and in time, into G2/M and back into G1.
as §1

pRB knock out MEFs = test: DNA content by FACS, pRB knock out mouse embryo fibroblasts; type: cell-based
Excerpt: (A) A graphical representation of the fold induction of sub-G1 DNA content in cells with or without pRB, as indicated below the graph. […] (B) A graphical representation of the fold induction of S-phase DNA content in the same cells.
The ability of SEQ ID NO:3 to stimulate both death and proliferation in mouse embryo fibroblasts, allows us to test the model, wherein pRB inhibits cell death after treatment with SEQ ID NO:3, thereby allowing for stimulation of proliferation (FIG. 9). In the absence of pRB, cells would no longer have the anti-apoptotic activity of pRB, and treatment with SEQ ID NO:3 would lead only to cell death. In the experiment shown in FIG. 11, two genetically identical populations of cells were used, except that one was pRB minus, by way of knock out technology. The fold inductions of both sub-G1 and S-phase are represented in FIG. 11. Upon treatment with SEQ ID NO:3, here done in duplicate, the cells with pRB show at least a two-fold induction of S-phase after one hour of treatment. The cells without pRB show none, but therefore a dramatic (up to 50 fold) induction of death.
After treatment with or without cell membrane permeable peptides (Synpep), cells were trypsinized, centrifuged and washed in PBS. […] The cells were then applied to the fluorescence-activated cell sorter (FACSCalibur; Becton Dickson). […]

MEFs [4] = test: DNA content by propidium iodide staining and FACS, mouse embryo fibroblasts; type: cell-based; settings: MEFs with pRB, after one hour of treatment, duplicate

Sequence of cyclin B1/cdc2 (P14635 whole entry): as above
Sequence of cyclin B1/cdc2 (P06493 whole entry partner): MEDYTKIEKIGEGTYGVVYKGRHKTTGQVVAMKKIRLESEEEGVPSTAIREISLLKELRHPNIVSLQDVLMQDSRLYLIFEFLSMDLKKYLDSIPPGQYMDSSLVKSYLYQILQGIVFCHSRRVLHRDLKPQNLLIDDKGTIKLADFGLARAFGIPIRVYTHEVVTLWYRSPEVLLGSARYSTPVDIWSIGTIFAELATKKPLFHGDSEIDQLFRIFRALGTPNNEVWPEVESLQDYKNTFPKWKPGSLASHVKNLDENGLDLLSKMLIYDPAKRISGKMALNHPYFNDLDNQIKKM

SKIRILVG (poly(A) polymerase cyclin recognition motif) [SEQ ID NO:1]
cyclin A phosphorylation in the same reaction mixture (cyclin A/cdk2; internal control for specificity): not cyclin A phosphorylation | pRB phosphorylation by cyclin A/cdk2 (cyclin A/cdk2): effectively inhibited | cyclin B1 autophosphorylation (cyclin B1/cdc2): not affected | phosphorylation of pRB by cyclin B1/cdc2 (cyclin B1/cdc2): strongly and specifically inhibited | presence of cdk2 in the eluate of GST-cyclin D1 [1]: significantly increased | PAP I-GST-cyclin B1 binding ([2]; 2, 5, 10 and 20 μM peptide): dose-dependent enhancement | association of purified bacterial his-PAP I with GST-cyclin B1 ([2]; 2, 10 and 20 μM peptide, Western blot with anti-PAP antibody): strongly stimulated | input PAP bound to GST-cyclin B1 ([2]; highest peptide concentration, purified bacterial his-PAP I): ~100%

SEQ ID NO:3: 8-mer peptide (SEQ ID NO:1) fused to penetratin (SEQ ID NO:2); cell-membrane permeable form of PAP's CRM (RQIKIWFQNRRMKWKKSKIRILVG; poly(A) polymerase cyclin recognition motif fued to Drosohilia Antennapedia homeodomain residues)
S-phase population of cells (HaTCat cells): dramatic increase | cell death (sub-G1 DNA content) (HaTCat cells; cycling HaTCat cells, over 30% of cells in S-phase): die | cell death (sub-G1 DNA content) (HaTCat cells; most confluent HaTCat population, 3.5% in S-phase): cell death is in fact inhibited | Wi38 death (sub-G1 DNA content) (Wi38 cells; populations of varying confluency): able to induce Wi38 death in a growth dependent manner | decrease in fold induction of sub G1 DNA content (Wi38 cells; with the increase in confluency and decrease in growth): 30 fold | cells that die (sub-G1 DNA content) (MEFs [3]; 30 μM, after the first hour): 30% | cells that die (sub-G1 DNA content) (MEFs [3]; 30 μM, by the fourth hour): 50% | cycling cells induced into S-phase (MEFs [3]; 30 μM, in the first hour): 25% | percentage of cells with S-phase DNA content (MEFs [3]): dramatically increased | percentage of cells with sub-G1 DNA content (MEFs [3]): dramatically increased | fold induction of death (sub-G1 DNA content) (pRB knock out MEFs): up to 50 fold | fold induction of S-phase (pRB knock out MEFs; MEFs without pRB, after one hour of treatment): none | fold induction of S-phase (MEFs [4]): two

LRSGIKVI (scrambled sequence) [SEQ ID NO:4, fused to penetratin in cell tests, reference compound]
pRB phosphorylation by cyclin A/cdk2 (cyclin A/cdk2): no effect | presence of cdk2 in the eluate of GST-cyclin D1 [1]: without significant effect | S-phase population of cells (HaTCat cells): not observed | percentage of cells with S-phase DNA content (MEFs [3]): No effects | percentage of cells with sub-G1 DNA content (MEFs [3]): No effects
